The supplement of paper PMC9112550, “Optimization of the antimicrobial peptide Bac7 by deep mutational scanning” (BMC Biology, 2022)

System: Escherichia coli TOP10
Experiment: shrunken log2 fold change of peptide-encoding DNA abundance (4.5 h post-induction vs induction); higher = less antimicrobial activity (less host growth inhibition)
Details: time post-induction: 4.5 h; library: site-saturation at positions 5, 18, 19, 20
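Further: peptides expressed intracellularly from a pBAD plasmid library in pooled LB shake-flask culture, induced with 0.3% L-arabinose, DNA abundance read by NGS, three biological replicates, DESeq2 with apeglm shrinkage.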

Sequence	shrunken log2 fold change
RRIRTRPPRLPRPRPRPSYEPRP	-0.352
RRIRTRPPRLPRPRPRPTAFPRP	0.13
RRIRTRPPRLPRPRPRPTAIPRP	0.0593
RRIRTRPPRLPRPRPRPTCQPRP	0.234
RRIRTRPPRLPRPRPRPTCVPRP	-0.308
RRIRTRPPRLPRPRPRPTDPPRP	-0.198
RRIRTRPPRLPRPRPRPTDTPRP	-0.0527
RRIRTRPPRLPRPRPRPTFAPRP	0.459
RRIRTRPPRLPRPRPRPTFRPRP	-0.0105
RRIRTRPPRLPRPRPRPTGDPRP	0.475
RRIRTRPPRLPRPRPRPTGWPRP	0.511
RRIRTRPPRLPRPRPRPTINPRP	-0.565
RRIRTRPPRLPRPRPRPTISPRP	-0.488
RRIRTRPPRLPRPRPRPTKLPRP	-0.0813
RRIRTRPPRLPRPRPRPTLHPRP	-0.126
RRIRTRPPRLPRPRPRPTMFPRP	-0.148
RRIRTRPPRLPRPRPRPTMSPRP	-0.163
RRIRTRPPRLPRPRPRPTQIPRP	0.0112
RRIRTRPPRLPRPRPRPTQPPRP	0.176
RRIRTRPPRLPRPRPRPTRTPRP	0.767
RRIRTRPPRLPRPRPRPTTGPRP	-0.191
RRIRTRPPRLPRPRPRPTTVPRP	-0.271
RRIRTRPPRLPRPRPRPTVSPRP	0.077
RRIRTRPPRLPRPRPRPVANPRP	0.133
RRIRTRPPRLPRPRPRPVCCPRP	-0.254

Sequence	shrunken log2 fold change
RRIRTRPPRLPRPRPRPVDEPRP	-0.146
RRIRTRPPRLPRPRPRPVEDPRP	0.0389
RRIRTRPPRLPRPRPRPVEKPRP	-0.016
RRIRTRPPRLPRPRPRPVEQPRP	0.112
RRIRTRPPRLPRPRPRPVHAPRP	-0.00294
RRIRTRPPRLPRPRPRPVIEPRP	-0.408
RRIRTRPPRLPRPRPRPVIMPRP	-0.181
RRIRTRPPRLPRPRPRPVIRPRP	-0.176
RRIRTRPPRLPRPRPRPVKHPRP	-0.411
RRIRTRPPRLPRPRPRPVKKPRP	0.0316
RRIRTRPPRLPRPRPRPVLAPRP	0.479
RRIRTRPPRLPRPRPRPVMCPRP	-0.222
RRIRTRPPRLPRPRPRPVMYPRP	0.0131
RRIRTRPPRLPRPRPRPVNWPRP	0.0495
RRIRTRPPRLPRPRPRPVPDPRP	-0.0687
RRIRTRPPRLPRPRPRPVRNPRP	0.509
RRIRTRPPRLPRPRPRPVRTPRP	0.149
RRIRTRPPRLPRPRPRPVSAPRP	0.252
RRIRTRPPRLPRPRPRPVSFPRP	-0.114
RRIRTRPPRLPRPRPRPVTKPRP	0.0906
RRIRTRPPRLPRPRPRPVTLPRP	-0.37
RRIRTRPPRLPRPRPRPVVGPRP	0.626
RRIRTRPPRLPRPRPRPVVNPRP	0.0198
RRIRTRPPRLPRPRPRPVVPPRP	-0.314
RRIRTRPPRLPRPRPRPVVSPRP	0.075

Sequence	shrunken log2 fold change
RRIRTRPPRLPRPRPRPVVVPRP	0.0543
RRIRTRPPRLPRPRPRPVWPPRP	0.332
RRIRTRPPRLPRPRPRPVYDPRP	-0.156
RRIRTRPPRLPRPRPRPVYFPRP	-0.558
RRIRTRPPRLPRPRPRPVYKPRP	-0.188
RRIRTRPPRLPRPRPRPWCGPRP	-0.0198
RRIRTRPPRLPRPRPRPWCYPRP	-0.291
RRIRTRPPRLPRPRPRPWDDPRP	0.033
RRIRTRPPRLPRPRPRPWDGPRP	0.0729
RRIRTRPPRLPRPRPRPWDRPRP	-0.105
RRIRTRPPRLPRPRPRPWFHPRP	-0.362
RRIRTRPPRLPRPRPRPWFKPRP	-0.214
RRIRTRPPRLPRPRPRPWFLPRP	-0.401
RRIRTRPPRLPRPRPRPWFTPRP	0.00948
RRIRTRPPRLPRPRPRPWGTPRP	-0.11
RRIRTRPPRLPRPRPRPWHSPRP	-0.274
RRIRTRPPRLPRPRPRPWILPRP	-0.23
RRIRTRPPRLPRPRPRPWKGPRP	0.143
RRIRTRPPRLPRPRPRPWLLPRP	-0.186
RRIRTRPPRLPRPRPRPWLVPRP	-0.0639
RRIRTRPPRLPRPRPRPWMMPRP	0.0505
RRIRTRPPRLPRPRPRPWMSPRP	0.00487
RRIRTRPPRLPRPRPRPWNDPRP	-0.271
RRIRTRPPRLPRPRPRPWNIPRP	0.0303
RRIRTRPPRLPRPRPRPWPEPRP	0.0147

Sequence	shrunken log2 fold change
RRIRTRPPRLPRPRPRPWPVPRP	-0.105
RRIRTRPPRLPRPRPRPWQLPRP	-0.189
RRIRTRPPRLPRPRPRPWQNPRP	-0.0181
RRIRTRPPRLPRPRPRPWQVPRP	-0.0764
RRIRTRPPRLPRPRPRPWRAPRP	0.21
RRIRTRPPRLPRPRPRPWSEPRP	-0.364
RRIRTRPPRLPRPRPRPWSNPRP	0.0394
RRIRTRPPRLPRPRPRPWVFPRP	0.0157
RRIRTRPPRLPRPRPRPWWIPRP	-0.869
RRIRTRPPRLPRPRPRPWWTPRP	-0.045
RRIRTRPPRLPRPRPRPWYRPRP	-0.23
RRIRTRPPRLPRPRPRPWYVPRP	-0.275
RRIRTRPPRLPRPRPRPYACPRP	-0.216
RRIRTRPPRLPRPRPRPYADPRP	-0.22
RRIRTRPPRLPRPRPRPYAFPRP	-0.17
RRIRTRPPRLPRPRPRPYCAPRP	-0.732
RRIRTRPPRLPRPRPRPYEFPRP	-0.202
RRIRTRPPRLPRPRPRPYELPRP	-0.854
RRIRTRPPRLPRPRPRPYFEPRP	-0.223
RRIRTRPPRLPRPRPRPYFFPRP	-0.684
RRIRTRPPRLPRPRPRPYFVPRP	-0.258
RRIRTRPPRLPRPRPRPYGSPRP	-0.154
RRIRTRPPRLPRPRPRPYKPPRP	-0.551
RRIRTRPPRLPRPRPRPYLTPRP	-0.171
RRIRTRPPRLPRPRPRPYLWPRP	-0.284

Sequence	shrunken log2 fold change
RRIRTRPPRLPRPRPRPYNEPRP	-1.35
RRIRTRPPRLPRPRPRPYPIPRP	0.00205
RRIRTRPPRLPRPRPRPYPTPRP	-0.374
RRIRTRPPRLPRPRPRPYQGPRP	-0.0132
RRIRTRPPRLPRPRPRPYRDPRP	-0.383
RRIRTRPPRLPRPRPRPYSKPRP	-0.565
RRIRTRPPRLPRPRPRPYSQPRP	-0.0274
RRIRTRPPRLPRPRPRPYSRPRP	0.0299
RRIRTRPPRLPRPRPRPYTCPRP	-0.0764
RRIRTRPPRLPRPRPRPYTIPRP	-1.21
RRIRTRPPRLPRPRPRPYTMPRP	-0.232
RRIRTRPPRLPRPRPRPYTRPRP	-0.0177
RRIRTRPPRLPRPRPRPYVKPRP	-0.221
RRIRTRPPRLPRPRPRPYWYPRP	-0.574
RRIRVRPPRLPRPRPRPAEGPRP	-0.0119
RRIRVRPPRLPRPRPRPAETPRP	0.344
RRIRVRPPRLPRPRPRPAFDPRP	-0.339
RRIRVRPPRLPRPRPRPAFSPRP	0.104
RRIRVRPPRLPRPRPRPAFYPRP	-0.135
RRIRVRPPRLPRPRPRPAGSPRP	0.29
RRIRVRPPRLPRPRPRPAHNPRP	-0.296
RRIRVRPPRLPRPRPRPAIVPRP	-0.149
RRIRVRPPRLPRPRPRPAIWPRP	0.0627
RRIRVRPPRLPRPRPRPAKGPRP	-0.283
RRIRVRPPRLPRPRPRPAMMPRP	0.464

Sequence	shrunken log2 fold change
RRIRVRPPRLPRPRPRPANEPRP	-0.174
RRIRVRPPRLPRPRPRPANFPRP	0.0908
RRIRVRPPRLPRPRPRPANTPRP	-0.0315
RRIRVRPPRLPRPRPRPAPFPRP	0.0259
RRIRVRPPRLPRPRPRPAPMPRP	0.324
RRIRVRPPRLPRPRPRPAPYPRP	-0.00665
RRIRVRPPRLPRPRPRPARDPRP	0.355
RRIRVRPPRLPRPRPRPASDPRP	0.347
RRIRVRPPRLPRPRPRPASKPRP	-0.0732
RRIRVRPPRLPRPRPRPATAPRP	0.18
RRIRVRPPRLPRPRPRPAYAPRP	-0.129
RRIRVRPPRLPRPRPRPAYMPRP	-0.271
RRIRVRPPRLPRPRPRPCCCPRP	0.0615
RRIRVRPPRLPRPRPRPCCQPRP	-0.19
RRIRVRPPRLPRPRPRPCEKPRP	-0.0491
RRIRVRPPRLPRPRPRPCESPRP	-0.374
RRIRVRPPRLPRPRPRPCFEPRP	-0.0173
RRIRVRPPRLPRPRPRPCFRPRP	-0.164
RRIRVRPPRLPRPRPRPCGEPRP	-0.256
RRIRVRPPRLPRPRPRPCGHPRP	0.0386
RRIRVRPPRLPRPRPRPCHFPRP	-0.0858
RRIRVRPPRLPRPRPRPCIMPRP	-0.514
RRIRVRPPRLPRPRPRPCKHPRP	-0.483
RRIRVRPPRLPRPRPRPCLSPRP	-0.153
RRIRVRPPRLPRPRPRPCMSPRP	-0.0664
